Data as given in US6905854B2, “Mutated penicillin expandase and process for preparing 7-ADCA using the same” (Synmax Biochemical Co., Ltd., priority 2002, dated 2005).
Changes are numbered by the printed parent chain. Numbers in names are those of the source.

B1: YS125: mutated DAOCS with substitution N304L as disclosed in Chin H. S. et al (protein, UniProt P18548 1-311, looked up, variant N304L)
Deacetoxycephalosporin C …: MDTTVPTFSLAELQQGLHQDEFRRCLRDKGLFYLTDCGLTDTELKSAKDLVIDFFEHGSEAEKRAVTSPVPTMRRGFTGLESESTAQITNTGSYSDYSMCYSMGTADNLFPSGDFERIWTQYFDRQYTASRAVAREVLRATGTEPDGGVEAFLDCEPLLRFRYFPQVPEHRSAEEQPLRMAPHYDLSMVTLIQQTPCANGFVSLQAEVGGAFTDLPYRPDAVLVFCGAIATLVTGGQVKAPRHHVAAPRRDQIAGSSRTSSVFFLRPNADFTFSVPLARECGFDVSLDGETATFQDWIGGNYVLIRRTSKA
B2: YS53: mutated penicillin expandase (DAOCS) with substitution C281Y (protein, UniProt P18548 1-311, looked up, variant C281Y)
Deacetoxycephalosporin C …: B1 Deacetoxycephalosporin C … with C281Y, L304N
B3: YS59: mutated penicillin expandase (DAOCS) with substitution G79E (protein, UniProt P18548 1-311, looked up, variant G79E)
Deacetoxycephalosporin C …: B1 Deacetoxycephalosporin C … with G79E, L304N
B4: YS115: mutated penicillin expandase (DAOCS) with substitution M73T (protein, UniProt P18548 1-311, looked up, variant M73T)
Deacetoxycephalosporin C …: B1 Deacetoxycephalosporin C … with M73T, L304N
B5: YS5: mutated penicillin expandase (DAOCS) with substitution V275I (protein, UniProt P18548 1-311, looked up, variant V275I)
Deacetoxycephalosporin C …: B1 Deacetoxycephalosporin C … with V275I, L304N
B6: YS87: mutated penicillin expandase (DAOCS) with substitution T91A (protein, UniProt P18548 1-311, looked up, variant T91A)
Deacetoxycephalosporin C …: B1 Deacetoxycephalosporin C … with T91A, L304N
B7: YS103: mutated penicillin expandase (DAOCS) with substitution M188V (protein, UniProt P18548 1-311, looked up, variant M188V)
Deacetoxycephalosporin C …: B1 Deacetoxycephalosporin C … with M188V, L304N
B8: YS110: mutated penicillin expandase (DAOCS) with substitution Y184H (protein, UniProt P18548 1-311, looked up, variant Y184H)
Deacetoxycephalosporin C …: B1 Deacetoxycephalosporin C … with Y184H, L304N
B9: YS123: mutated penicillin expandase (DAOCS) with substitution H244Q (protein, UniProt P18548 1-311, looked up, variant H244Q)
Deacetoxycephalosporin C …: B1 Deacetoxycephalosporin C … with H244Q, L304N
B10: EC12: mutated penicillin expandase (DAOCS) with substitution L277Q (protein, UniProt P18548 1-311, looked up, variant L277Q)
Deacetoxycephalosporin C …: B1 Deacetoxycephalosporin C … with L277Q, L304N

How the values were obtained:
[1] = Kinetic assay of purified DAOCS with penicillin G (standard penicillin G assay, HPLC of cephalosporin G); assay type: biochemical; conditions: for penicillin G, 20 μg purified DAOCS, 1 mM α-ketoglutarate, 30° C.; for Km: triplicate, Hanes-Woolf Plot
Protocol: For penicillin G, 20 μl of cell extracts was added into a standard 200 μl assay reaction containing 50 mM Mops/pH 7.5, 4 mM ascorbate, 1 mM FeSO4, 4 mM α-ketoglutarate and 7 mM penicillin G, and incubated at 30° C. for 20 minutes. The reaction was stopped by addition of 200 μl of ethanol, followed by a centrifugation at 15,000×g for 5 minutes. The concentration of cephalosporin G in supernatant was analyzed by HPLC with 40 μl injection. The mobile phase was 25 mM potassium phosphate/pH 6.5 with 19% acetonitrile at a flow rate of 1 ml/min. The retention time for cephalosporin G was 8.5 minutes and 12.5 minutes for penicillin G with detection at 215 nm, and the product at 8.5 minutes in DAOCS reaction was confirmed by ESI-LC/MS (positive): [M+H]^+=333. […] The different combinations of the mutated amino acids mentioned above were also constructed by site-directed mutagenesis.
(§1) The cell extract (2 ml) of a candidate mutant was applied onto a HiTrap Q column (5 ml) pre-equilibrated with buffer B (50 mM Mops/pH 7.5, 1 mM DTT, 0.4 mM pefabloc SC, and 0.5 μg/ml leupeptin). Then, the column was washed with 20 ml of buffer B, followed by a further wash with 25 ml of buffer B containing 120 mM NaCl, and DAOCS was eluted off with 20 ml of buffer B containing 150 mM NaCl. The DAOCS containing fractions were pooled (10 ml), concentrated by UF 15 device (NMWL 5K; Millipore), and loaded onto a Hiload Superdex 75 (16/60) column pre-equilibrated with buffer B at a flow rate of 1 ml/min.
(§2) The standard penicillin G assay was followed for kinetic assay, but 20 μg of purified DAOCS was used and the concentration of α-ketoglutarate was reduced to 1 mM. Kinetic parameters were obtained from triplicate experiments by Hanes-Woolf Plot. For assays using penicillin N as a main substrate, a total volume of 240 μl reaction containing 50 mM Hepes/pH 7.5, 0.4 mM ascorbate, 0.1 mM FeSO4, 0.1 mM α-ketoglutarate, 0.1 mM penicillin N and 0.5 μg of purified DAOCS was incubated at 30° C. for 10 minutes, then the same volume of 10 mM EDTA/pH 7.5 was added, and the mixture was subjected to ultrafiltration with UF 0.5 device (NMWL 5000, Millipore). The filtrate was analyzed by HPLC using 25 mM potassium phosphate/pH 6.5 as a mobile phase. The retention time of DAOC and penicillin N was 12 minutes and 13.5 minutes, respectively The results of kinetic parameters are shown in Table 1, wherein the definition and calculation of the parameters are described in Lehninger et al. Principles of Biochemistry, 2nd Ed. Worth Publishers, New York (1993) which is incorporated herein for reference.

[2] = Kinetic assay of purified DAOCS with penicillin N as main substrate; assay type: biochemical; conditions: for penicillin N, 0.5 μg purified DAOCS, 30° C., 10 minutes; for Km: triplicate, Hanes-Woolf Plot
Protocol: as §1, §2

| Molecule | kcat [1] [S^−1] | Km [1] [µM] | kcat [2] [S^−1] | Km [2] [µM] |
| --- | --- | --- | --- | --- |
| B1 | 0.0402 ± 0.0006 | 550 ± 120 | 0.415 ± 0.063 | 18 ± 4 |
| B2 | 0.0744 ± 0.0033 | 680 ± 340 | 0.273 ± 0.014 | 6 ± 1 |
| B3 | 0.0315 ± 0.0003 | 750 ± 20 | 0.178 ± 0.019 | 9 ± 3 |
| B4 | 0.0627 ± 0.0021 | 740 ± 160 | 0.239 ± 0.009 | 6 ± 3 |
| B5 | 0.0502 ± 0.0012 | 1680 ± 200 | 0.252 ± 0.020 | 12 ± 3 |
| B6 | 0.0522 ± 0.0004 | 1360 ± 90 | 0.247 ± 0.006 | 9 ± 0.5 |
| B7 | 0.0456 ± 0.0016 | 760 ± 170 | 0.084 ± 0.002 | 47 ± 0.5 |
| B8 | 0.0798 ± 0.0012 | 950 ± 50 | 0.048 ± 0.005 | 295 ± 30 |
| B9 | 0.0698 ± 0.0012 | 1390 ± 90 | 0.260 ± 0.006 | 9 ± 1.5 |
| B10 | 0.1036 ± 0.0012 | 1020 ± 20 | 0.297 ± 0.020 | 11 ± 1.5 |
